For assay [1], the target named is T1, Human CD40 ECD protein (mouse IgG2a Fc tag) (human, UniProt P25942 21-193).
T1 construct: extracellular domain; also called Human CD40-msFc; human recombinant CD40; not shown: mouse IgG2a Fc tag
The assay is described as follows: bridging ELISA, coated B7H3-His, soluble CD40-msFc. The protocol:
Anti-B7H3/CD40 bi-specific antibodies were analyzed by ELISA for their simultaneous binding to recombinant human B7H3 and human CD40. Briefly, Human B7H3 CD protein (His-tag) was diluted and coated onto an ELISA plate with a volume of […] by incubation at 4° C. overnight. The next day, the plate was blocked with PBST-BSA buffer, then serially diluted samples of anti-B7H3/CD40 bi-specific antibodies were pipetted into appropriate wells at 50 μL/well, and the plate was incubated for 1 h followed by washing. Human CD40-msFc antibody was added into the plate at 50 μL/well. After 1-hour incubation at room temperature, […] anti-Mouse IgG (H+L) antibody was added into the plate at 100 μL/well. The plate was incubated for 1 hour at room temperature followed by washing. TMB substrate solution was added at 100 p L/well and the color development was stopped by adding 100 uUwell Stop Solution (2N H2SO4). Absorbance at 450 nm and 620 nm was read by Tecan F200 Pro plate reader. GraphPad 7.0, “[Agonist] vs. response—Variable slope (four parameters)” was used to plot the binding data and calculate binding EC50 values.

The target in assay [2] is T2, human CD40 expressed on CHO cells (human, UniProt P25942 21-277).
T2 construct: whole, on cells; also used for the reporter cells over-expressing human CD40; also called cellular CD40; CHO-CD40 cells
Description: FACS, CHO cells. A general note: A flow cytometer gives signals particle by particle.

T2 sequence (P25942 21-277): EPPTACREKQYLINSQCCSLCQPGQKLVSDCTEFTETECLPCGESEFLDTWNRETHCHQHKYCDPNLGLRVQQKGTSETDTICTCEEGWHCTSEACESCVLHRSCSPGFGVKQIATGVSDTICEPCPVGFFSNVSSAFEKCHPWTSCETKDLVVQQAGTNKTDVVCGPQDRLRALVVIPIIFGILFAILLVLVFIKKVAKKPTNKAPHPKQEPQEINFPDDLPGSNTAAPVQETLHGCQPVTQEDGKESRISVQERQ
T1 sequence (P25942 21-193): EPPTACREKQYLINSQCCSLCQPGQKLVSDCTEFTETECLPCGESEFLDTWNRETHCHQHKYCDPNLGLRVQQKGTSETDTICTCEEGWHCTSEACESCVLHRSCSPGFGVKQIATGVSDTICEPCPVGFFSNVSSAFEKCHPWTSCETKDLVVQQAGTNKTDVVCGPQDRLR

B1: Ly611 (bispecific antibody, human IgG1, kappa)
heavy: EVQLQQSGPELVKPGASVKMSCKASGYTFTSYVMHWVKQKPGQGLEWIGYINPYNDGTECTDKFKGKATLTSDKSSSTAYMELSSLTSEDSAVYYCASIYYGYDGTYFGVWGAGTSVTVSSASTKGPSVFPLAPSSKSTSGGTAALGCLVKDYFPEPVTVSWNSGALTSGVHTFPAVLQSSGLYSLSSVVTVPSSSLGTQTYICNVNHKPSNTKVDKKVEPKSCDKTHTCPPCPAPELLGPSVFLFPPKPKDTLMISRTPEVTCVVVDVSHEDPEVKFNWYVDGVEVHNAKTKPREEQYNSTYRVVSVLTVLHQDWLNGKEYKCKVSNKALPAPIEKTISKAKGQPREPQVYTLPPSREEMTKNQVSLTCLVKGFYPSDIAVEWESNGQPENNYKTTPPVLDSDGSFFLYSKLTVDKSRWQQGNVFSCSVMHEALHNHYTQKSLSLSPGGGGGSGGGGSGGGGSGGGGSQVQLVESGGGLVQPGGSLKLSCATSGFNFNDYFMNWVRQASGKGLEWVGQIRNKNYNYATYYTESLEGRVTISRDDSKNTAYLQMNSLKTEDTAVYYCTSYYYDGFADYFDYWGQGTTVTVSSGGGGSGGGGSGGGGSGGGGSDIQMTQSPSSLSASVGDRVTITCKASQNIYIYLNWYQQKPGKAPKLLIYNTNNLQTGVPSRFSGSGSGTDFTLTISSLQPEDFATYYCLQHSSRRTFGGGTKVEIK
light: QIVLSQSPAILSTSPGEKVTMTCRASSSVSYMHWYQQKPGSSPKPWIYATSNLASGVPARFSGSRSGTSYSLTISRVEAEDAATYYCQQWSSNTLTFGGGTKLELKRTVAAPSVFIFPPSDEQLKSGTASVVCLLNNFYPREAKVQWKVDNALQSGNSQESVTEQDSKDSTYSLSSTLTLSKADYEKHKVYACEVTHQGLSSPVTKSFNRGEC
notes: Ly383 HC (IgG1 mutated Fc)-TM740 scFv VH-VL + Ly383 LC
B1: the binding result in assay [1] and in assay [2] was “binds” each time.

B2: Ly612 (bispecific antibody, human IgG1, kappa)
heavy: EVQLQQSGPELVKPGASVKMSCKASGYTFTSYVMHWVKQKPGQGLEWIGYINPYNDGTECTDKFKGKATLTSDKSSSTAYMELSSLTSEDSAVYYCASIYYGYDGTYFGVWGAGTSVTVSSASTKGPSVFPLAPSSKSTSGGTAALGCLVKDYFPEPVTVSWNSGALTSGVHTFPAVLQSSGLYSLSSVVTVPSSSLGTQTYICNVNHKPSNTKVDKKVEPKSCDKTHTCPPCPAPELLGPSVFLFPPKPKDTLMISRTPEVTCVVVDVSHEDPEVKFNWYVDGVEVHNAKTKPREEQYNSTYRVVSVLTVLHQDWLNGKEYKCKVSNKALPAPIEKTISKAKGQPREPQVYTLPPSREEMTKNQVSLTCLVKGFYPSDIAVEWESNGQPENNYKTTPPVLDSDGSFFLYSKLTVDKSRWQQGNVFSCSVMHEALHNHYTQKSLSLSPGGGGGSGGGGSGGGGSGGGGSDIQMTQSPSSLSASVGDRVTITCLASEDISNDLAWYQQKPGKAPKLLIYFVDRLLDGVPSRFSGSGSGTDFTLTISSLQPEDFATYYCQQSYKYPPTFGQGTKLEIKGGGGSGGGGSGGGGSGGGGSEVQLVESGGGLVQPGGSLRLSCAASGFTFTNYGLHWVRQAPGKGLEWVSSISPSGGVTYYRDSVKGRFTISRDNSKNTLYLQMNSLRAEDTAVYYCAKPFLGWGGANWIAHWGQGTLVTVSS
light: QIVLSQSPAILSTSPGEKVTMTCRASSSVSYMHWYQQKPGSSPKPWIYATSNLASGVPARFSGSRSGTSYSLTISRVEAEDAATYYCQQWSSNTLTFGGGTKLELKRTVAAPSVFIFPPSDEQLKSGTASVVCLLNNFYPREAKVQWKVDNALQSGNSQESVTEQDSKDSTYSLSSTLTLSKADYEKHKVYACEVTHQGLSSPVTKSFNRGEC
notes: Ly383 HC (IgG1 mutated Fc)-TM559 scFv VL-VH + Ly383 LC
In the case of B2, the binding result in assay [1] and in assay [2] was “binds” throughout.

(Values after patent publication US20220372155A1 (LYVGEN BIOPHARMA, published 2022).)
